The values that follow come from paper PMC10456876.

Substitutions are numbered along the chain they refer to. Names and notes keep the numbering of the source.

For test [1], the target named is human telomeric nucleosome core particle (teloNCP), P68431;P62805;P04908;P06899. Put plainly: EMSA. To be noted: chain shown with the change, triplicate; for response: read off a plot; for EC50: titration 0, 23, 36, 55, 85, 130, 200 nM TRF1core against teloNCP.
A further test deals with T1, TRF1 (human), P54274.
T1 chain: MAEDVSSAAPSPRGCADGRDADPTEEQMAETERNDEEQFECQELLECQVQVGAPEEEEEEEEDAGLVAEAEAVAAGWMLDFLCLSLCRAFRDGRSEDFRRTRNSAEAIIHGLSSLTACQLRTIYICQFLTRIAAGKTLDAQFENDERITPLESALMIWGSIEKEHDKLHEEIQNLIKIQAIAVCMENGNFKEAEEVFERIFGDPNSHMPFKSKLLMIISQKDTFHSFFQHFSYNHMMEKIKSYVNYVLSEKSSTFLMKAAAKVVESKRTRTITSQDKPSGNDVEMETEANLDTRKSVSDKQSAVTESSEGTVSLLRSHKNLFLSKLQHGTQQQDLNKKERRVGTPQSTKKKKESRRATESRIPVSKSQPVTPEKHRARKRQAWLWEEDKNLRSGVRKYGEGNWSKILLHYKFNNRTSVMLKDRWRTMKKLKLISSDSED
Briefly: native MS; purified TRF1core (co-expressed in Sf9, co-purified through MBP on TIN2) at 20 uM, dialysed into 750 mM ammonium acetate pH 8.0, 1 mM DTT. As to conditions: remark: other sources report otherwise.

Setting [2] is: point at 55 nM TRF1core, parent: est. 79.

B1: wild-type MBP-tagged TRF1core (TRF1-TIN2-TPP1), P54274;Q9BSI4 S434D; S435D; S437D (protein)
chain 1: T1 chain with S434D, S435D, S437D
chain 2: MATPLVAGPAALRFAAAASWQVVRGRCVEHFPRVLEFLRSLRAVAPGLVRYRHHERLCMGLKAKVVVELILQGRPWAQVLKALNHHFPESGPIVRDPKATKQDLRKILEAQETFYQQVKQLSEAPVDLASKLQELEQEYGEPFLAAMEKLLFEYLCQLEKALPTPQAQQLQDVLSWMQPGVSITSSLAWRQYGVDMGWLLPECSVTDSVNLAEPMEQNPPQQQRLALHNPLPKAKPGTHLPQGPSSRTHPEPLAGRHFNLAPLGRRRVQSQWASTRGGHKERPTVMLFPFRNLGSPTQVISKPESKEEHAIYTADLAMGTRAASTGKSKSPCQTLGGRALKENPVDLPATEQKENCLDCYMDPLRLSLLPPRARKPVCPPSLCSSVITIGDLVLDSDEEENGQGEGKESLENYQKTKFDTLIPTLCEYLPPSGHGAIPVSSCDCRDSSRPL
chain 3: MAGSGRLVLRPWIRELILGSETPSSPRAGQLLEVLQDAEAAVAGPSHAPDTSDVGATLLVSDGTHSVRCLVTREALDTSDWEEKEFGFRGTEGRLLLLQDCGVHVQVAEGGAPAEFYLQVDRFSLLPTEQPRLRVPGCNQDLDVQKKLYDCLEEHLSESTSSNAGLSLSQLLDEMREDQEHQGALVCLAESCLTLEGPCTAPPVTHWAASRCKATGEAVYTVPSSMLCISENDQLILSSLGPCQRTQGPELPPPDPALQDLSLTLIASPPSSPSSSGTPALPGHMSSEESGTSISLLPALSLAAPDPGQRSSSQPSPAICSAPATLTPRSPHASRTPSSPLQSCTPSLSPRSHVPSPHQALVTRPQKPSLEFKEFVGLPCKNRPPFPRTGATRGAQEPCSVWEPPKRHRDGSAFQYEYEPPCTSLCARVQAVRLPPQLMAWALHFLMDAQPGSEPTPM
The EC50 is the concentration giving half of the maximal effect. A low value points to higher potency in that assay. Consider B1, for which the response in test [1] (setting [2]) turned out to be 91 % Bound. Besides, the EC50 in test [1] worked out at 30.3 nM.

B2: wild-type MBP-tagged TRF1core (TRF1-TIN2-TPP1), P54274;Q9BSI4 L384A; W385A; K389A (protein)
chain 1: AEDVSSAAPSPRGCADGRDADPTEEQMAETERNDEEQFECQELLECQVQVGAPEEEEEEEEDAGLVAEAEAVAAGWMLDFLCLSLCRAFRDGRSEDFRRTRNSAEAIIHGLSSLTACQLRTIYICQFLTRIAAGKTLDAQFENDERITPLESALMIWGSIEKEHDKLHEEIQNLIKIQAIAVCMENGNFKEAEEVFERIFGDPNSHMPFKSKLLMIISQKDTFHSFFQHFSYNHMMEKIKSYVNYVLSEKSSTFLMKAAAKVVESKRTRTITSQDKPSGNDVEMETEANLDTRKSVSDKQSAVTESSEGTVSLLRSHKNLFLSKLQHGTQQQDLNKKERRVGTPQSTKKKKESRRATESRIPVSKSQPVTPEKHRARKRQAWAAEEDANLRSGVRKYGEGNWSKILLHYKFNNRTSVMLKDRWRTMKKLKLISSDSED
chain 2: B1 chain 2
chain 3: B1 chain 3
Turning to B2, the response in test [1] (setting [2]) was determined as 68 % Bound; in test [1] (point at 200 nM TRF1core, parent: est. 100) it was 97 % Bound. The EC50 in test [1] worked out at 42.4 nM.

B3: TRF1, P54274 1-439 (natural protein)
chain: T1 chain
modifications: here or on the partner: phosphoserine at 434, 435 and 437 (likely by endogenous insect cell kinases; S435 phosphorylated in 87.3% of the identified peptides); phosphoserine at 434, 435 and 437 (likely by endogenous insect cell kinases; S435 phosphorylated in 87.3% of the identified peptides)
What is called stoichiometry N is a count of units in the complex or per binding partner. With B3, the stoichiometry N with TRF1 (human), P54274 is 2.
